According to article PMC7278359 (The Journal of Biological Chemistry, 2020):

B1: CD3ε-derived peptide Ac-PPPVPNPDY-NH2 (residues 180–188) (peptide)
peptide: Ac-PPPVPNPDY-NH2
notes: also called minimal CD3ε peptide; source: synthetic peptide, from Biosynthan
B2: minimal CD3ϵ peptide Ac-PPPVPNPDY-NH2 (residues 180–188) (peptide)
peptide: Ac-PPPVPNPDY-NH2
notes: CD3ϵ residues 180–188 (PRS); MM 1109.3 Da; source: synthetic peptide (bought: Biosynthan)

Columns and labels:
[1] = target: Nck1-SH3.1 (residues 4–59) (human, UniProt P16333 4-59); test: crystal structure; Nck1-SH3.1 (4-59) with 2-fold molar excess of Ac-…-NH2; 0.1 M Bis-Tris/HCl pH 6.5, 2 M (NH4)2SO4; sitting drop, 22 °C; two complexes in the asymmetric unit (5QU2); conditions: both partners purified
[2] = target: Nck1-SH3.1 (residues 4–59) (human, UniProt P16333 4-59); test: crystal structure; Nck1-SH3.1 with 2-fold molar excess of Ac-…-NH2; 0.1 M BisTris/HCl pH 6.5, 2 M (NH4)2SO4; space group I212121, two complexes in the asymmetric unit; conditions: both partners purified

binding result [1] | binding result [2] | Binder
binds |  | B1
 | binds | B2
